Test results: the supplement of paper PMC12042874
± gives the uncertainty stated by the source.

Assay: amyloid nucleation score (Sup35N fusion, yeast selection) (log enrichment); library NNK1; higher = more nucleation; inactive = no reads after selection
Outline: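 Libraries of peptides of 20 random codons fused to Sup35N were expressed in psi-negative yeast and induced 24 hours with 100 μM copper sulfate. Selection was 7 days at 30°C on medium lacking adenine and uracil, and plasmid inserts were Illumina-sequenced before and after selection. Nucleation score is the DiMSum log enrichment of output over input reads, centred on the mode score of non-aggregating sequences, and sequences with under 100 input reads were left out.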

Substance	amyloid nucleation score
TFPGSHLFTFLMMEGSLNHG	0.694 ± 0.64
TFQLKMWEHVVLPDVSMAST	0.669 ± 0.48
TFRRFGYTELYCGENSLLEC	-0.036 ± 0.84
TFSLCKWVHSANKGLVQMTF	0.265 ± 0.41
TFSWYRLRSVMGLVGNAAMI	0.31 ± 0.61
TFTCMPLLWLIFS	6.029 ± 0.057
TFTDS	0.176 ± 0.75
TFTLNFCGLQF	7.124 ± 0.059
TFVGLRVSAHRTQWALGDT	-1.51 ± 2.4
TFVLV	0.332 ± 0.74
TFVLYGCDRKVFRRNVVTAS	0.316 ± 0.35
TFVVFFCWLGS	5.12 ± 0.093
TGDDSYDVLLVGLVKTSGVY	-0.234 ± 0.34
TGDLGRTGKVTLGTLEDSKI	-0.694 ± 0.56
TGLLLLIRNICYCLNLQLWG	0.271 ± 0.53
TGLLSR	1.33 ± 0.9
TGLSWVYSFRIEYVKVGFY	0.426 ± 0.9
TGPKRLTDNREFRKF	-1.01 ± 2.7
TGRAPSVLHNKR	-0.842 ± 0.64
TGSLVFLTLTLLLVCYLPIT	0.302 ± 0.43
TGTPYLLHLNWNLGSGMSGT	0.451 ± 0.2
TGWLWYQHRWSDTWLPGTMR	2.04 ± 0.15
THFVLE	0.53 ± 0.28
THLVTCKGGLSMPDLVYRHV	0.183 ± 0.28
THMGRTLSCFGMMSWSSDVA	5.88 ± 0.065

Substance	amyloid nucleation score
THSIF	inactive
THSSGINVTPPDVCSLITLT	-0.159 ± 1.2
THVIRVGNQRSLRVFSRGVS	1.32 ± 0.41
THVSDFLWDVNVSGNNTCSR	1.14 ± 0.37
THWLNRTGCVRTHPVQSGKE	-1.09 ± 1
TIDIV	2.28 ± 0.13
TIGLCAMYSAARLLV	0.717 ± 0.93
TIGPSGNLEGCVLSVGASNI	-1.35 ± 1.2
TIIVDDGWRAYSRLS	0.22 ± 0.71
TIRARMVCLNCQMVR	3.54 ± 0.079
TISGLFLSRLYSKTMGGC	1.89 ± 0.62
TISSLLFI	-0.252 ± 0.47
TIVELFYDRSLR	1.17 ± 0.33
TIVSDGAQDFQHHS	inactive
TIWVEKLWDIYI	inactive
TIYTSSGVVMALVHRLHLVA	-1.1 ± 0.68
TKGFLSNGFLVWPVCIVILW	0.387 ± 0.77
TKILRP	0.33 ± 0.22
TKMVWASALWAHSPVMY	0.724 ± 1.2
TKNVLLTYGHPMLDMFAVVY	inactive
TKPMIMSTFSEFCIPCTMRL	0.182 ± 0.55
TKVGFFQRLGYEQVCNCKML	0.244 ± 0.49
TKWLLFLVRTRHVMMCGGVM	inactive
TLCINWKPFP	0.308 ± 0.38
TLCQNSGKFCMYTWLSVYVD	0.423 ± 0.26

Substance	amyloid nucleation score
TLDLWNVRFC	-0.057 ± 1.4
TLFPVRNTMMFLESYS	-0.742 ± 0.41
TLGAYQSCRGNVIMGQGTFV	0.266 ± 0.46
TLGPAWNVKFAWVFSFLVCI	0.933 ± 0.7
TLIGFWPTRSFSSAVRYNPN	-0.116 ± 1
TLIWSCARHWV	1.44 ± 0.22
TLLSVTYSCIRMPVPMAYRS	4.42 ± 0.085
TLQNNLTFPDCLGLRCGSHV	5.03 ± 0.085
TLQTTWLKNLGDLSSSREAS	-0.184 ± 0.41
TLRCDFLPRNKF	-0.595 ± 1.4
TLRSTWFRMCHTISA	0.441 ± 0.25
TLVLYVKRCWESGLISNECF	-0.699 ± 1.5
TLYPHTGEGGKRLDLGCLSR	1.39 ± 0.48
TMFLVSRDFRGIVLYWITTF	-0.364 ± 0.78
TMSFSFF	0.855 ± 0.28
TMYWITQKVEKSSHMVCRVT	2.61 ± 0.078
TNINSSTDKRLPTET	-0.013 ± 0.5
TNRPLVLTDNVNKSLKMRLP	0.638 ± 0.27
TNSPKKGMNGYGFNATVWTS	0.413 ± 0.9
TNTFFLTILHPRFVKMGPCW	4.55 ± 0.1
TNVVRVSLCFYMY	8.776 ± 0.069
TNYDFMVCCFKPSMAYGKCM	-0.354 ± 0.63
TPFVMIKDGKADFVILNVYH	7.077 ± 0.055
TPGNVG	0.514 ± 0.26
TPLKEHLLNVVRMLGKIDCD	0.177 ± 0.42

Substance	amyloid nucleation score
TPSMKWFPKLLVLVSSTRHY	-0.51 ± 0.44
TPSTQLALWAIYFHRRLFES	-0.54 ± 1.3
TPTSSIPTPPRFPALTC	-0.72 ± 0.41
TQIAESYLVQANNSAEATAA	-0.32 ± 1.4
TQSCF	0.074 ± 0.84
TQSTLGSMTIASDYCTTE	1.42 ± 0.34
TRALVFRQYYIAPVHCYYLG	3.54 ± 0.19
TRGTPFEYLATGG	0.607 ± 0.71
TRLCWFWFNA	0.066 ± 0.41
TRLLSYFDTRRELNCKVYYN	-0.053 ± 0.66
TRPLPWTQP	0.242 ± 0.47
TRQNMFGIHHPWYNRRIS	-0.458 ± 0.42
TRTESVMVLWRRMAVGGCGR	0.362 ± 0.65
TRTNELF	0.498 ± 0.33
TRVEFEQGVVFGELYSVFRV	0.351 ± 0.39
TRVGLVPSLGDRSDNYIVRI	0.087 ± 0.39
TRWCVRERVSFKRAGQCDRV	inactive
TRWIRYTFRFS	1.61 ± 0.13
TSAVQIVTLQLVLSWMRYHM	1.02 ± 0.28
TSAVSSCDFRKRWCCSSFHW	0.665 ± 0.24
TSCFGVWRHVLSRHSFRTSV	4.17 ± 0.13
TSDGHFSSQVDSVDESKVGE	-0.534 ± 0.46
TSEDMC	-1.18 ± 2.1
TSFVSETGFTWVCVFLVAGT	0.616 ± 1.1
TSGFKLGRSGGYVCRS	1.41 ± 0.78

Substance	amyloid nucleation score
TSHAVFNTVINLVVFVDQHC	8.111 ± 0.055
TSILAKNIIYCHYVGFPLGC	5.97 ± 0.093
TSIMRVTILLISGGRLDVFL	-0.896 ± 1
TSLCMIHYVK	-0.069 ± 1.1
TSNCGTSLIDHSVRLLMLQR	-0.163 ± 0.49
TSNNLFKRALVGDYNKVAYR	0.572 ± 0.75
TSPTYAYCYCLSTNRRQKCL	-0.957 ± 1.1
TSRSSVFRVAFHCGGSDSLV	0.039 ± 0.43
TSSDCLLDSSIFNVGKFWYV	0.019 ± 0.53
TSSFFTDIDFNG	-0.363 ± 0.7
TSSWDSPCYQEAVFIGGYYI	0.619 ± 0.47
TTALFWSRRPSFGDLYRGFN	3.86 ± 0.082
TTCGCKMHVSAHR	0.425 ± 1.1
TTCSVVRDFYSLIFCTKCPY	4.03 ± 0.063
TTLNEELYSLVVSRDWGDSN	inactive
TTLWLVPYVC	0.529 ± 0.58
TTMIRSYFREDYGQGPLMSW	0.51 ± 1.2
TTRAHEVDTYLYFHFGVGRT	2.84 ± 0.17
TTRCVFSPDNVDTDY	inactive
TTSRAWFYL	-0.353 ± 1
TTTNCRI	0.057 ± 0.23
TTVLRGLKTP	-0.825 ± 1.5
TTVPSNV	-0.189 ± 1.7
TTYRCNVKYQYFMFNDIEFF	3.54 ± 0.21
TVEYNRPFCRFIFCGSGYRH	-1.2 ± 0.92

Substance	amyloid nucleation score
TVGSIQKAEYWIHGYMATVN	0.169 ± 0.29
TVHSLV	-0.276 ± 0.38
TVHVGTVPKFSYRFGIMGTE	-0.482 ± 0.66
TVIEIKL	1.28 ± 0.85
TVIYSNYAVICMGSMSQVDT	7.762 ± 0.059
TVLNFKAQYRSSPMLAH	0.862 ± 0.39
TVNHFGLEPCVTKIMGLY	0.213 ± 0.74
TVNVY	0.829 ± 0.62
TVNYTCYYGYIIFGYASSVK	3.63 ± 0.076
TVPLEIIL	0.382 ± 0.52
TVRCSMGYILYRWVHSRLGR	1.4 ± 0.48
TVRFHYQGFTVS	-0.236 ± 0.61
TVRGSAFLIKWKLI	-0.86 ± 0.9
TVRLTRTRV	-0.474 ± 0.86
TVRNYHFVLV	1.46 ± 0.33
TVSKLSCYNVVDPTIWNLSD	0.236 ± 0.69
TVSLGVAAVMFPR	0.95 ± 0.36
TVSMSMAYHVK	2.27 ± 0.25
TVTGIAKFHVVSQANY	-0.3 ± 0.98
TVVTYVRNNFKEVHSCVEVS	-0.607 ± 0.47
TVYYFG	1.18 ± 0.19
TWIKILSGPLYKFCI	-0.2 ± 0.56
TWIMIGDHFVAGLGYRERD	-0.893 ± 0.43
TWLQPLNRTMNWMTSTAGFR	inactive
TWNNKFRPLVEHGYSAS	-0.526 ± 0.85

Substance	amyloid nucleation score
TWSYGLASDEVGPDAVVIVY	0.495 ± 1
TWYHGSRMSLRVTGRILQCG	-0.43 ± 1.1
TYALITADI	0.193 ± 0.18
TYARLLNCSAYSTTF	0.048 ± 0.55
TYDGSKAIVALSKGNKN	0.915 ± 0.51
TYEYTRWGWYYLS	1.11 ± 0.12
TYGEYRTYISYH	0.389 ± 0.43
TYGMYFLFSYVSVCQY	2.3 ± 0.13
TYHVSEV	-0.175 ± 0.24
TYNEDEVPCLMLASDVRFSS	0.372 ± 0.64
TYQTVSKKSEFIMPFGLCSN	-0.011 ± 0.17
TYRNHYCKDKAL	0.175 ± 0.75
TYRVLGWMYTCW	-0.809 ± 1.1
TYSGYFVLAIISPRLDRLFT	-1.1 ± 0.58
TYSRARAQSIMFVRLFKACL	0.643 ± 0.34
TYTGFYCVRKLILVRRVSVW	-0.897 ± 1.6
TYVSNNPKGNPTLHAYFSF	0.68 ± 0.97
TYWNVLNAVGQALPSIYGIG	0.955 ± 0.63
TYWQVARTSPSF	0.547 ± 0.33
TYWYSHINFLYYIASFVWSP	inactive
TYYAAMRDGFVYHTKGLMAS	-0.209 ± 1
VADAPMR	0.944 ± 0.9
VAIRTKPLYLDEYIFMDHMP	0.459 ± 0.68
VAITCLKIANGDRGVLQTLC	0.264 ± 0.86
